Reference: US20220267412A1 (SERPLUS TECHNOLOGY, published 2022)
Substitutions are numbered along the chain they refer to. Numbers in names are those of the source.

T1: human neutrophil elastase (human, UniProt P08246 30-247, limits assumed)
T1 sequence (looked up): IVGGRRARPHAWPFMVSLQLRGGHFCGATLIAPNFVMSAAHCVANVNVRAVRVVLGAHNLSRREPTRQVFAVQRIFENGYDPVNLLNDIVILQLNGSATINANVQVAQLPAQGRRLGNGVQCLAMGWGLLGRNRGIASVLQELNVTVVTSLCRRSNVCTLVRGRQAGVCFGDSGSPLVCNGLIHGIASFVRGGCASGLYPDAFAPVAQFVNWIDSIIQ

T2: neutrophil proteinase 3 (UniProt P24158 28-248, limits assumed)
T2 sequence (looked up): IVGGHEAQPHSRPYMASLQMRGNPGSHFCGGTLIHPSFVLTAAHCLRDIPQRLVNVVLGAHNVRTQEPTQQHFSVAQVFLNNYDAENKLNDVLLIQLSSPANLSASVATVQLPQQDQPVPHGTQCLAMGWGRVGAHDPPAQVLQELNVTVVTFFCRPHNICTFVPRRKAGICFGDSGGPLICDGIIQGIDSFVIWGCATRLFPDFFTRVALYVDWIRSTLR

B1: recombinant human serpin B1, wild type (rhsB1-cys344), reduced active monomer (other)
chain: MEQLSSANTRFALDLFLALSENNPAGNIFISPFSISSAMAMVFLGTRGNTAAQLSKTFHFNTVEEVHSRFQSLNADINKRGASYILKLANRLYGEKTYNFLPEFLVSTQKTYGADLASVDFQHASEDARKTINQWVKGQTEGKIPELLASGMVDNMTKLVLVNAIYFKGNWKDKFMKEATTNAPFRLNKKDRKTVKMMYQKKKFAYGYIEDLKCRVLELPYQGEELSMVILLPDDIEDESTGLKKIEEQLTLEKLHEWTKPENLDFIEVNVSLPRFKLEESYTLNSDLARLGVQDLFNSSKADLSGMSGARDIFISKIVHKSFVEVNEEGTEAAAATAGIATFCMLMPEENFTADHPFLFFIRHNSSGSILFLGRFSSP
B2: rhsB1D, intermolecular disulfide-bonded dimeric form of rhsB1-cys344 (other)
chain: B1 chain
modifications: intermolecular disulfide bond Cys-344:Cys-344 between the two monomers
B3: human serpin B1 C344G variant (other)
chain: B1 chain with C344G
B4: human serpin B1 C344A variant (other)
chain: B1 chain with C344A
B5: human serpin B1 C344V variant (other)
chain: B1 chain with C344V
B6: peroxynitrite oxidized (inactivated) wild-type rhsB1 (other)
chain: B1 chain
modifications: oxidized by peroxynitrite (Cys-344 per the filing; chemical nature not determined)
B7: rhsB1M*, post-translationally modified (oxidized) monomeric form of rhsB1-cys344 (other)
chain: B1 chain
modifications: Cys-344 in an irreversibly oxidized state (chemical nature of the modification not determined)
B8: human neutrophil cathepsin G (enzyme, UniProt P08311 21-244, looked up)
chain: IIGGRESRPHSRPYMAYLQIQSPAGQSRCGGFLVREDFVLTAAHCWGSNINVTLGAHNIQRRENTQQHITARRAIRHPQYNQRTIQNDIMLLQLSRRVRRNRNVNPVALPRAQEGLRPGTLCTVAGWGRVSMRRGTDTLREVQLRVQRDRQCLRIFGSYDPRRQICVGDRRERKAAFKGDSGGPLLCNNVAHGIVSYGKSSGVPPEVFTRVSSFLPWIRTTMRS
notes: Bought purified enzyme; also called CatG

Key:
[1] = biological target: TLCK-treated bovine alpha chymotrypsin (bovine, UniProt P00766 1-13; P00766 16-146; P00766 149-245); experiment: cell-based or functional assay
[2] = biological target: B8; experiment: cell-based or functional assay
[3] = biological target: porcine pancreatic elastase (porcine, UniProt P00772 27-266); experiment: cell-based or functional assay
[4] = biological target: T1, human neutrophil elastase; experiment: cell-based or functional assay
[5] = biological target: T2, neutrophil proteinase 3; experiment: cell-based or functional assay
[6] = biological target: B2; experiment: SDS-PAGE of enzyme:serpin complexes, no 2-ME
[7] = biological target: B7; experiment: SDS-PAGE of enzyme:serpin complexes, no 2-ME

porcine pancreatic elastase, sequence (P00772 27-266): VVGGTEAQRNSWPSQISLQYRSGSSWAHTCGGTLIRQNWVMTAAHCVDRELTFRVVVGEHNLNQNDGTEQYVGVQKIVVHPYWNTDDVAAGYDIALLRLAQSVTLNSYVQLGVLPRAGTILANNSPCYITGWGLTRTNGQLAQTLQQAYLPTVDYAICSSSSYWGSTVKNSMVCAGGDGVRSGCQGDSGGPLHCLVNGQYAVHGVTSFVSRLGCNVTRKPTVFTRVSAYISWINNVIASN

Binder: B1
inhibition of chymotrypsin, monomer against dimer [1]: 2 fold more effective than rhsB1D
stoichiometry of inhibition (SOI), with 2-ME [1]: ~0.5 molar ratio inhibitor:enzyme
SOI with CatG against SOI with BC [2]: ~2 fold of the SOI with BC
inhibition of CatG, reduced dimer against unreduced dimer [2]: ~2 fold against the unreduced dimer
inhibition of cathepsin G, monomer against dimer [2]: 2 fold more effective than rhsB1D
amount of purified protein to fully inhibit PPE (typically 160 nM, 200 uL, +40 mM 2-ME) [3]: 1 µg
stoichiometry of inhibition (SOI) [4]: ~2.1 molar ratio inhibitor:enzyme

Binder: B2
stoichiometry of inhibition (SOI), no 2-ME [1]: ~1 molar ratio inhibitor:enzyme
SOI with CatG against SOI with BC [2]: ~2 fold of the SOI with BC

Binder: B3
amount of purified protein to fully inhibit PPE (typically 160 nM, 200 uL, +40 mM 2-ME) [3]: 3.5 µg

Binder: B4
amount of purified protein to fully inhibit PPE (typically 160 nM, 200 uL, +40 mM 2-ME) [3]: 1 µg

Binder: B5
amount of purified protein to fully inhibit PPE (typically 160 nM, 200 uL, +40 mM 2-ME) [3]: 1.5 µg

Binder: B6
loss of PR3 inhibitory activity, 2-fold molar excess of inhibitor [5]: ~40 % of inhibitory activity lost

Binder: B7
stoichiometry of inhibition (SOI), with or without 2-ME [1]: ~3 molar ratio inhibitor:enzyme
stoichiometry of inhibition (SOI), with 2-ME [4]: ~13 molar ratio inhibitor:enzyme

Binder: B8
binding result [6]: binds
binding result [7]: binds
